Experimental data published in publication PMC11793155.

Legend:
[1] = immunofluorescence, confocal microscopy; conditions: glycan lost; control: untreated cells
[2] = cycloheximide chase 0-12 h, western blot; conditions: glycan lost; control: CHX alone

Protein | localisation_or_trafficking [1] | degradation_or_half_life [2]
ACTRIIB (activin receptor type IIB, ACVR2B): tunicamycin (TM) (protein) parent chain: MTAPWVALALLWGSLCAGSGRGEAETRECIYYNANWELERTNQSGLERCEGEQDKRLHCYASWRNSSGTIELVKKGCWLDDFNCYDRQECVATEENPQVYFCCCEGNFCNERFTHLPEAGGPEVTYEPPPTAPTLLTVLAYSLLPIGGLSLIVLLAFWMYRHRKPPYGHVDIHEDPGPPPPSPLVGLKPLQLLEIKARGRFGCVWKAQLMNDFVAVKIFPLQDKQSWQSEREIFSTPGMKHENLLQFIAAEKRGSNLEVELWLITAFHDKGSLTDYLKGNIITWNELCHVAETMSRGLSYLHEDVPWCRGEGHKPSIAHRDFKSKNVLLKSDLTAVLADFGLAVRFEPGKPPGDTHGQVGTRRYMAPEVLEGAINFQRDAFLRIDMYAMGLVLWELVSRCKAADGPVDEYMLPFEEEIGQHPSLEELQEVVVHKKMRPTIKDHWLKHPGLAQLCVTIEECWDHDAEARLSAGCVEERVSLIRRSVNGTTSDCLVSLVTSVTNVDLPPKESSI | decreases | –
ACTRIIB (activin receptor type IIB, ACVR2B): tunicamycin (TM) + CHX (protein) parent chain: MTAPWVALALLWGSLCAGSGRGEAETRECIYYNANWELERTNQSGLERCEGEQDKRLHCYASWRNSSGTIELVKKGCWLDDFNCYDRQECVATEENPQVYFCCCEGNFCNERFTHLPEAGGPEVTYEPPPTAPTLLTVLAYSLLPIGGLSLIVLLAFWMYRHRKPPYGHVDIHEDPGPPPPSPLVGLKPLQLLEIKARGRFGCVWKAQLMNDFVAVKIFPLQDKQSWQSEREIFSTPGMKHENLLQFIAAEKRGSNLEVELWLITAFHDKGSLTDYLKGNIITWNELCHVAETMSRGLSYLHEDVPWCRGEGHKPSIAHRDFKSKNVLLKSDLTAVLADFGLAVRFEPGKPPGDTHGQVGTRRYMAPEVLEGAINFQRDAFLRIDMYAMGLVLWELVSRCKAADGPVDEYMLPFEEEIGQHPSLEELQEVVVHKKMRPTIKDHWLKHPGLAQLCVTIEECWDHDAEARLSAGCVEERVSLIRRSVNGTTSDCLVSLVTSVTNVDLPPKESSI | – | decreases
